# PMC8304084, “A Concerted Action of UBA5 C-Terminal Unstructured Regions Is Important for Transfer of Activated UFM1 to UFC1” (International Journal of Molecular Sciences, 2021)
# Columns and labels:
# Type in all cases: binding
# [1] = molecular target: T1, UFC1 (Homo sapiens, UniProt Q9Y3C8); assay: ITC, UBA5 constructs vs UFC1
# T1 construct: Full length UFC1, residues 1–167; modified ubiquitin tag (Ub19) with TEV site (N, cleaved yes); made in house; host or cells: E. coli T7 Express
# T1 sequence (Q9Y3C8 1-167): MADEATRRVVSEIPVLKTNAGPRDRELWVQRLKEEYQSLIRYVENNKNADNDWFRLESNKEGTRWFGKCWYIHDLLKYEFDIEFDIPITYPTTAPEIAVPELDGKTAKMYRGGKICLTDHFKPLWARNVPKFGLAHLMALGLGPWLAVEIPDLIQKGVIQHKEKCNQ
# From the text: (§1) To understand how the UBA5 C-terminus participates in the ufmylation cascade, we performed isothermal titration calorimetry (ITC) experiments, in which we titrated UBA5 C-terminal peptides (see Table 1) to the UBA5 AD, UFC1, UFM1 and representative LC3/GABARAP proteins (Figure 2A, Supplementary Figure S2A–D and Table 2).
# To investigate if conjugation of UFM1 to the UBA5 catalytic cysteine (C250) affects the UFC1:UBA5 interactions, we prepared full length UBA5 C250K mutant and stably conjugated UFM1 to it as reported before for a number of ubiquitin-specific E2 enzymes. We compared the UFC1 spectra after addition of a twofold molar excess of FL^1–404 and FL^1–404 C250K~UFM1 constructs (Supplementary Figure S5C).
# All proteins and peptides were expressed in E.Coli T7 Express (New England Biolabs GmbH, Frankfurt, Germany) cells in LB or M9 (to obtain ^15N- and ^13C,^15N-labeled polypeptides) media according to the protocol described in [33, 36]. For protein purification, bacterial cell pellets were resuspended in lysis buffer (50 mM Tris-HCl pH = 7.5, 100 mM NaCl, 5% glycerol, 5 mM PIC (protease inhibitor cocktail)) and lysed via sonication (TT13 Sonotrode, 40% amplitude, for 6 × 1 min with a 0.5/0.5-s pulse). Lysates were centrifuged for 45 min at 17,000× g at 4 °C. Supernatants were loaded onto a His Trap Fast Flow 5 mL column (GE Healthcare, München, Germany) equilibrated in loading buffer (50 mM Tris-HCl pH = 8.0, 250 mM NaCl, 1% glycerol, 20 mM imidazole). The column was washed with loading buffer for 5–10 CV and protein was eluted with elution buffer (50 mM Tris-HCl pH = 8, 250 mM NaCl, 1% glycerol, 400 mM imidazole). Simultaneous TEV cleavage (1 mg TEV protease was added to 100 mg peptides/proteins) and buffer exchange to loading buffer via dialysis was performed over night at 4 °C. After reverse IMAC, proteins were concentrated with conical concentrators (Millipore Merck, Darmstadt, Germany) and loaded on a Superdex 10/60 75 or 200 column (GE Healthcare, München, Germany) for further purification and equilibration with ITC/NMR buffer (25 mM HEPES pH = 7.5, 100 mM NaCl). For structural NMR spectroscopy, buffer containing 50 mM Tris-HCl pH = 7.5, 100 mM NaCl was used. Prior to NMR experiments, TCEP and protease inhibitors cocktail were added to the samples to final concentrations 1 and 5 mM, respectively. Purified peptides and protein were concentrated and stored at −80 °C. The protein and peptide concentrations were calculated from the UV absorption at 280 nm by Nanodrop spectrophotometer (Thermo Scientific, Langenselbold, Germany).
# (§2) All ITC experiments were performed at 25 °C using a VP-ITC microcalorimeter (Malvern Panalytical Ltd., Malvern, UK). Peptides in concentration of ~400 µM were titrated into 20–25 µM solutions of corresponding binding partner at a stirring speed of 307 rpm. The raw data were corrected on the dilution heat of peptides obtained in independent experiment (titration of the peptide in syringe into the ITC/NMR buffer in the measuring cell). Pre-titration delay was set to 180 s, interval between titration steps was experimentally adjusted to avoid kinetic contribution to the observed heat effects and set to 200 s. A single ITC profile was collected for each type of interaction. The ITC data were analyzed based on a “one-site” binding model with MicroCal ITC software implemented in Origin 7.0.
# [2] = test system: UBA5 AD^1–330; assay: ITC, UBA5 C-terminus vs UBA5 AD; settings: 25 °C, R1-R2-R3^325–404 titrated into AD^1–330 solution
# From the text: as §1
# All proteins and peptides were expressed in E.Coli T7 Express (New England Biolabs GmbH, Frankfurt, Germany) cells in LB or M9 (to obtain ^15N- and ^13C,^15N-labeled polypeptides) media according to the protocol described in [33, 36]. For protein purification, bacterial cell pellets were resuspended in lysis buffer (50 mM Tris-HCl pH = 7.5, 100 mM NaCl, 5% glycerol, 5 mM PIC (protease inhibitor cocktail)) and lysed via sonication (TT13 Sonotrode, 40% amplitude, for 6 × 1 min with a 0.5/0.5-s pulse). Lysates were centrifuged for 45 min at 17,000× g at 4 °C. […] The protein and peptide concentrations were calculated from the UV absorption at 280 nm by Nanodrop spectrophotometer (Thermo Scientific, Langenselbold, Germany).
# All ITC experiments were performed at 25 °C using a VP-ITC microcalorimeter (Malvern Panalytical Ltd., Malvern, UK). […] The ITC data were analyzed based on a “one-site” binding model with MicroCal ITC software implemented in Origin 7.0. […]
# [3] = molecular target: T1, UFC1; assay: NMR titration with UFC1; settings: [15N,1H] TROSY-HSQC, 25 °C
# Protocol: To understand the role of the UBA5 C-terminal region in coordination of the binding events reported above on the molecular level, we performed NMR titration experiments. […] It seems, that these UBA5 residues form additional interactions with UFC1.
# All NMR experiments were performed at a sample temperature of 25 °C on Bruker 600, 700, 800, 900, and 950 MHz spectrometers equipped with cryogenic probes, and a 500 MHz spectrometer equipped with a room-temperature triple-resonance probe. All NMR spectra were analyzed with the Sparky 3.114 software (University of California, San Francisco, USA). For NMR titration experiments, the non-labeled UBA5 peptides were titrated to 100 µM ^13C,^15N-labeled UFC1 to a final molar ratio of 1:8 (UFC1:UBA5 peptide). Conversely, 100 µM ^13C,^15N-labeled UBA5 peptides were titrated with non-labeled UFC1 to a final molar ratio 1:4 (UBA5 peptide:UFC1). 2D ^1H-^15N correlation spectra ([^15N,^1H] TROSY-HSQC) were recorded at each titration point. The same types of spectra were recorded to estimate binding of ^13C,^15N-labeled UFC1 (75 µM) to non-labeled UBA5, UBA5~UFM1 and UFM1 at 1:2 molar ratios. CSP values, Δδ, were calculated for each individual amide group using the formula Δδ = [(ΔδN/5)^2 + Δδ^2HN)]^1/2.
# [4] = test system: Ub; assay: Interaction of ubiquitin with UBA5 C-terminal region
# Protocol: as §2
substance,measurement,setting,value
"R1-R2-R3^325–404: UBA5 C-terminal part, residues 325–404 (recombinant, E. coli)",N,"[1]; ITC stoichiometry, peptide vs UFC1, ± = fitting error",1.03 ± 0.01
same,affinity increase to UFC1 vs R3^388–404,"[1]; ITC, 25 °C",3 fold
same,ΔG,"[1]; ITC, 25 °C, peptide vs UFC1",-7.66 kcal/mol
same,−T*ΔS,"[1]; ITC, 25 °C, peptide vs UFC1",-0.62 kcal/mol
same,ΔS,"[1]; ITC, 25 °C, peptide vs UFC1, one-site model, single profile",2.09 cal mol^−1 K^−1
same,KA*10^−6,"[1]; ITC, 25 °C, peptide vs UFC1, value is KA × 10^−6, ± = fitting error",0.41 ± 0.02 M^−1
same,Kd,"[1]; ITC, VP-ITC, 25 °C, peptide ~400 µM titrated into 20–25 µM UFC1, 25 mM HEPES pH 7.5, 100 mM NaCl, one-site model, single ITC profile",2400 nM
same,ΔH,"[1]; ITC, VP-ITC, 25 °C, peptide ~400 µM titrated into 20–25 µM UFC1, 25 mM HEPES pH 7.5, 100 mM NaCl, one-site model, single ITC profile, ± = fitting error",-7.04 ± 0.07 kcal/mol
same,interaction with UBA5 AD,[2],does not interact with the UBA5 AD
same,interaction with UBA5 AD,[2]; listed as R1‐R2‐R3325–404,No interactions
same,interaction with UFC1 (in words),[3],mediated mostly by the UBA5 residues 386–404
same,interaction with ubiquitin,[4],no interaction
